Reference: patent US20150344570A1 (published 2015)

T1: FcγRIIb extracellular domain with C-terminal His tag (human, UniProt P31994 43-217)
T1 construct: extracellular domain; Soluble receptor used as analyte in Biacore; also called FcgRIIb
T1 sequence (looked up): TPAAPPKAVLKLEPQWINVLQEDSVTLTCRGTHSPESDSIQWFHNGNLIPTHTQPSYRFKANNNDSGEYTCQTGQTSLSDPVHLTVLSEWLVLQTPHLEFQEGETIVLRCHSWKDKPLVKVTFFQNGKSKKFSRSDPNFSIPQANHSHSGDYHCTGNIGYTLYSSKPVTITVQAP


How the values were obtained:
[1] = biological target: T1, FcγRIIb extracellular domain with …; experiment: SPR (Biacore), antibody captured, FcγR as analyte; binding relative to GpH7-A5/GpH7-B3/GpL16-k0 = 100
[2] = biological target: T2, FcγRIa extracellular domain with C-terminal His tag (human, UniProt P12314 16-292); experiment: as above
T2 construct: extracellular domain; Soluble receptor used as analyte in Biacore; also called FcgRI
T2 sequence (P12314 16-292): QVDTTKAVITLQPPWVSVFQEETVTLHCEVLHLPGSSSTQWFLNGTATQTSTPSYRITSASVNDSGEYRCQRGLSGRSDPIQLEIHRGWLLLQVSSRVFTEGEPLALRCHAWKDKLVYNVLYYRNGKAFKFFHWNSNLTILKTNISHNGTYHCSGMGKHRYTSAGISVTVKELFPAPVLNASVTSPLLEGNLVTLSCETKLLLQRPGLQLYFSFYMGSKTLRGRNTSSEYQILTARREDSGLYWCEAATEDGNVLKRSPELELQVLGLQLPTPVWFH

[3] = biological target: T2, FcγRIa extracellular domain with …; experiment: ratio He/Con_1a : He/Con_2b (FcγRIa over FcγRIIb), SPR (Biacore)

Binder | He/Con_2b [1] | He/Con_1a [2] | He_1a/2b (Ia/IIb) [3]
GpH7-A5/GpH7-B3 variant H268_13S/GpL16-k0 (antibody, human IgG1, kappa, Heterodimerized IgG1, mutation in the GpH7-B3 chain only; also called He Ab) heavy 1: not shown heavy 2: not shown light: DIVMTQSPLSLPVTPGEPASISCQASESLVHSNRNTYLHWYLQKPGQSPQLLIYKVSNRFSGVPDRFSGSGSGTDFTLKISRVEAEDVGVYYCSQNTHVPPTFGQGTKVEIERTVAAPSVFIFPPSDEQLKSGTASVVCLLNNFYPREAKVQWKVDNALQSGNSQESVTEQDSKDSTYSLSSTLTLSKADYEKHKVYACEVTHQGLSSPVTKSFNRGEC | 160 control = 100 | 109 control = 100 | 0.68
GpH7-A5/GpH7-B3 variant P271_01G/GpL16-k0 (antibody, human IgG1, kappa, Heterodimerized IgG1, mutation in the GpH7-B3 chain only; also called He Ab) heavy 1: not shown heavy 2: not shown light: DIVMTQSPLSLPVTPGEPASISCQASESLVHSNRNTYLHWYLQKPGQSPQLLIYKVSNRFSGVPDRFSGSGSGTDFTLKISRVEAEDVGVYYCSQNTHVPPTFGQGTKVEIERTVAAPSVFIFPPSDEQLKSGTASVVCLLNNFYPREAKVQWKVDNALQSGNSQESVTEQDSKDSTYSLSSTLTLSKADYEKHKVYACEVTHQGLSSPVTKSFNRGEC | 193 control = 100 | 105 control = 100 | 0.54
GpH7-A5/GpH7-B3 variant S267_03V/GpL16-k0 (antibody, human IgG1, kappa, Heterodimerized IgG1, mutation in the GpH7-B3 chain only; also called He Ab) heavy 1: not shown heavy 2: not shown light: DIVMTQSPLSLPVTPGEPASISCQASESLVHSNRNTYLHWYLQKPGQSPQLLIYKVSNRFSGVPDRFSGSGSGTDFTLKISRVEAEDVGVYYCSQNTHVPPTFGQGTKVEIERTVAAPSVFIFPPSDEQLKSGTASVVCLLNNFYPREAKVQWKVDNALQSGNSQESVTEQDSKDSTYSLSSTLTLSKADYEKHKVYACEVTHQGLSSPVTKSFNRGEC | 192 control = 100 | 106 control = 100 | 0.55
GpH7-A5/GpH7-B3 variant K326_07I/GpL16-k0 (antibody, human IgG1, kappa, Heterodimerized IgG1, mutation in the GpH7-B3 chain only; also called He Ab) heavy 1: not shown heavy 2: not shown light: DIVMTQSPLSLPVTPGEPASISCQASESLVHSNRNTYLHWYLQKPGQSPQLLIYKVSNRFSGVPDRFSGSGSGTDFTLKISRVEAEDVGVYYCSQNTHVPPTFGQGTKVEIERTVAAPSVFIFPPSDEQLKSGTASVVCLLNNFYPREAKVQWKVDNALQSGNSQESVTEQDSKDSTYSLSSTLTLSKADYEKHKVYACEVTHQGLSSPVTKSFNRGEC | 199 control = 100 | 101 control = 100 | 0.51
GpH7-A5/GpH7-B3 variant K326_04F/GpL16-k0 (antibody, human IgG1, kappa, Heterodimerized IgG1, mutation in the GpH7-B3 chain only; also called He Ab) heavy 1: not shown heavy 2: not shown light: DIVMTQSPLSLPVTPGEPASISCQASESLVHSNRNTYLHWYLQKPGQSPQLLIYKVSNRFSGVPDRFSGSGSGTDFTLKISRVEAEDVGVYYCSQNTHVPPTFGQGTKVEIERTVAAPSVFIFPPSDEQLKSGTASVVCLLNNFYPREAKVQWKVDNALQSGNSQESVTEQDSKDSTYSLSSTLTLSKADYEKHKVYACEVTHQGLSSPVTKSFNRGEC | 155 control = 100 | 102 control = 100 | 0.66
GpH7-A5/GpH7-B3 variant K326_09D/GpL16-k0 (antibody, human IgG1, kappa, Heterodimerized IgG1, mutation in the GpH7-B3 chain only; also called He Ab) heavy 1: not shown heavy 2: not shown light: DIVMTQSPLSLPVTPGEPASISCQASESLVHSNRNTYLHWYLQKPGQSPQLLIYKVSNRFSGVPDRFSGSGSGTDFTLKISRVEAEDVGVYYCSQNTHVPPTFGQGTKVEIERTVAAPSVFIFPPSDEQLKSGTASVVCLLNNFYPREAKVQWKVDNALQSGNSQESVTEQDSKDSTYSLSSTLTLSKADYEKHKVYACEVTHQGLSSPVTKSFNRGEC | 193 control = 100 | 103 control = 100 | 0.54
GpH7-A5/GpH7-B3 variant K326_19Q/GpL16-k0 (antibody, human IgG1, kappa, Heterodimerized IgG1, mutation in the GpH7-B3 chain only; also called He Ab) heavy 1: not shown heavy 2: not shown light: DIVMTQSPLSLPVTPGEPASISCQASESLVHSNRNTYLHWYLQKPGQSPQLLIYKVSNRFSGVPDRFSGSGSGTDFTLKISRVEAEDVGVYYCSQNTHVPPTFGQGTKVEIERTVAAPSVFIFPPSDEQLKSGTASVVCLLNNFYPREAKVQWKVDNALQSGNSQESVTEQDSKDSTYSLSSTLTLSKADYEKHKVYACEVTHQGLSSPVTKSFNRGEC | 139 control = 100 | 102 control = 100 | 0.73
GpH7-A5/GpH7-B3 variant K326_14T/GpL16-k0 (antibody, human IgG1, kappa, Heterodimerized IgG1, mutation in the GpH7-B3 chain only; also called He Ab) heavy 1: not shown heavy 2: not shown light: DIVMTQSPLSLPVTPGEPASISCQASESLVHSNRNTYLHWYLQKPGQSPQLLIYKVSNRFSGVPDRFSGSGSGTDFTLKISRVEAEDVGVYYCSQNTHVPPTFGQGTKVEIERTVAAPSVFIFPPSDEQLKSGTASVVCLLNNFYPREAKVQWKVDNALQSGNSQESVTEQDSKDSTYSLSSTLTLSKADYEKHKVYACEVTHQGLSSPVTKSFNRGEC | 150 control = 100 | 104 control = 100 | 0.7
GpH7-A5/GpH7-B3 variant K326_10E/GpL16-k0 (antibody, human IgG1, kappa, Heterodimerized IgG1, mutation in the GpH7-B3 chain only; also called He Ab) heavy 1: not shown heavy 2: not shown light: DIVMTQSPLSLPVTPGEPASISCQASESLVHSNRNTYLHWYLQKPGQSPQLLIYKVSNRFSGVPDRFSGSGSGTDFTLKISRVEAEDVGVYYCSQNTHVPPTFGQGTKVEIERTVAAPSVFIFPPSDEQLKSGTASVVCLLNNFYPREAKVQWKVDNALQSGNSQESVTEQDSKDSTYSLSSTLTLSKADYEKHKVYACEVTHQGLSSPVTKSFNRGEC | 200 control = 100 | 104 control = 100 | 0.52
GpH7-A5/GpH7-B3 variant S267_06M/GpL16-k0 (antibody, human IgG1, kappa, Heterodimerized IgG1, mutation in the GpH7-B3 chain only; also called He Ab) heavy 1: not shown heavy 2: not shown light: DIVMTQSPLSLPVTPGEPASISCQASESLVHSNRNTYLHWYLQKPGQSPQLLIYKVSNRFSGVPDRFSGSGSGTDFTLKISRVEAEDVGVYYCSQNTHVPPTFGQGTKVEIERTVAAPSVFIFPPSDEQLKSGTASVVCLLNNFYPREAKVQWKVDNALQSGNSQESVTEQDSKDSTYSLSSTLTLSKADYEKHKVYACEVTHQGLSSPVTKSFNRGEC | 210 control = 100 | 106 control = 100 | 0.51
GpH7-A5/GpH7-B3 variant S267_02A/GpL16-k0 (antibody, human IgG1, kappa, Heterodimerized IgG1, mutation in the GpH7-B3 chain only; also called He Ab) heavy 1: not shown heavy 2: not shown light: DIVMTQSPLSLPVTPGEPASISCQASESLVHSNRNTYLHWYLQKPGQSPQLLIYKVSNRFSGVPDRFSGSGSGTDFTLKISRVEAEDVGVYYCSQNTHVPPTFGQGTKVEIERTVAAPSVFIFPPSDEQLKSGTASVVCLLNNFYPREAKVQWKVDNALQSGNSQESVTEQDSKDSTYSLSSTLTLSKADYEKHKVYACEVTHQGLSSPVTKSFNRGEC | 243 control = 100 | 109 control = 100 | 0.45
GpH7-A5/GpH7-B3 variant K326_15Y/GpL16-k0 (antibody, human IgG1, kappa, Heterodimerized IgG1, mutation in the GpH7-B3 chain only; also called He Ab) heavy 1: not shown heavy 2: not shown light: DIVMTQSPLSLPVTPGEPASISCQASESLVHSNRNTYLHWYLQKPGQSPQLLIYKVSNRFSGVPDRFSGSGSGTDFTLKISRVEAEDVGVYYCSQNTHVPPTFGQGTKVEIERTVAAPSVFIFPPSDEQLKSGTASVVCLLNNFYPREAKVQWKVDNALQSGNSQESVTEQDSKDSTYSLSSTLTLSKADYEKHKVYACEVTHQGLSSPVTKSFNRGEC | 159 control = 100 | 106 control = 100 | 0.66
GpH7-A5/GpH7-B3 variant H268_18N/GpL16-k0 (antibody, human IgG1, kappa, Heterodimerized IgG1, mutation in the GpH7-B3 chain only; also called He Ab) heavy 1: not shown heavy 2: not shown light: DIVMTQSPLSLPVTPGEPASISCQASESLVHSNRNTYLHWYLQKPGQSPQLLIYKVSNRFSGVPDRFSGSGSGTDFTLKISRVEAEDVGVYYCSQNTHVPPTFGQGTKVEIERTVAAPSVFIFPPSDEQLKSGTASVVCLLNNFYPREAKVQWKVDNALQSGNSQESVTEQDSKDSTYSLSSTLTLSKADYEKHKVYACEVTHQGLSSPVTKSFNRGEC | 156 control = 100 | 108 control = 100 | 0.69
GpH7-A5/GpH7-B3 variant K326_20W/GpL16-k0 (antibody, human IgG1, kappa, Heterodimerized IgG1, mutation in the GpH7-B3 chain only; also called He Ab) heavy 1: not shown heavy 2: not shown light: DIVMTQSPLSLPVTPGEPASISCQASESLVHSNRNTYLHWYLQKPGQSPQLLIYKVSNRFSGVPDRFSGSGSGTDFTLKISRVEAEDVGVYYCSQNTHVPPTFGQGTKVEIERTVAAPSVFIFPPSDEQLKSGTASVVCLLNNFYPREAKVQWKVDNALQSGNSQESVTEQDSKDSTYSLSSTLTLSKADYEKHKVYACEVTHQGLSSPVTKSFNRGEC | 148 control = 100 | 103 control = 100 | 0.69
GpH7-A5/GpH7-B3 variant K326_06M/GpL16-k0 (antibody, human IgG1, kappa, Heterodimerized IgG1, mutation in the GpH7-B3 chain only; also called He Ab) heavy 1: not shown heavy 2: not shown light: DIVMTQSPLSLPVTPGEPASISCQASESLVHSNRNTYLHWYLQKPGQSPQLLIYKVSNRFSGVPDRFSGSGSGTDFTLKISRVEAEDVGVYYCSQNTHVPPTFGQGTKVEIERTVAAPSVFIFPPSDEQLKSGTASVVCLLNNFYPREAKVQWKVDNALQSGNSQESVTEQDSKDSTYSLSSTLTLSKADYEKHKVYACEVTHQGLSSPVTKSFNRGEC | 165 control = 100 | 102 control = 100 | 0.62
GpH7-A5/GpH7-B3 variant K326_03V/GpL16-k0 (antibody, human IgG1, kappa, Heterodimerized IgG1, mutation in the GpH7-B3 chain only; also called He Ab) heavy 1: not shown heavy 2: not shown light: DIVMTQSPLSLPVTPGEPASISCQASESLVHSNRNTYLHWYLQKPGQSPQLLIYKVSNRFSGVPDRFSGSGSGTDFTLKISRVEAEDVGVYYCSQNTHVPPTFGQGTKVEIERTVAAPSVFIFPPSDEQLKSGTASVVCLLNNFYPREAKVQWKVDNALQSGNSQESVTEQDSKDSTYSLSSTLTLSKADYEKHKVYACEVTHQGLSSPVTKSFNRGEC | 175 control = 100 | 102 control = 100 | 0.58
GpH7-A5/GpH7-B3 variant K326_08L/GpL16-k0 (antibody, human IgG1, kappa, Heterodimerized IgG1, mutation in the GpH7-B3 chain only; also called He Ab) heavy 1: not shown heavy 2: not shown light: DIVMTQSPLSLPVTPGEPASISCQASESLVHSNRNTYLHWYLQKPGQSPQLLIYKVSNRFSGVPDRFSGSGSGTDFTLKISRVEAEDVGVYYCSQNTHVPPTFGQGTKVEIERTVAAPSVFIFPPSDEQLKSGTASVVCLLNNFYPREAKVQWKVDNALQSGNSQESVTEQDSKDSTYSLSSTLTLSKADYEKHKVYACEVTHQGLSSPVTKSFNRGEC | 177 control = 100 | 100 control = 100 | 0.57
